Data as given in patent publication US20240269194A1, “COMPOSITIONS AND METHODS FOR ISLET CELL TRANSPLANTS” (City of Hope, priority 2021, published 2024).

Molecular target: T1, gastrin receptor CCKBR on human islets (human) (UniProt P32239)
T1 sequence (looked up): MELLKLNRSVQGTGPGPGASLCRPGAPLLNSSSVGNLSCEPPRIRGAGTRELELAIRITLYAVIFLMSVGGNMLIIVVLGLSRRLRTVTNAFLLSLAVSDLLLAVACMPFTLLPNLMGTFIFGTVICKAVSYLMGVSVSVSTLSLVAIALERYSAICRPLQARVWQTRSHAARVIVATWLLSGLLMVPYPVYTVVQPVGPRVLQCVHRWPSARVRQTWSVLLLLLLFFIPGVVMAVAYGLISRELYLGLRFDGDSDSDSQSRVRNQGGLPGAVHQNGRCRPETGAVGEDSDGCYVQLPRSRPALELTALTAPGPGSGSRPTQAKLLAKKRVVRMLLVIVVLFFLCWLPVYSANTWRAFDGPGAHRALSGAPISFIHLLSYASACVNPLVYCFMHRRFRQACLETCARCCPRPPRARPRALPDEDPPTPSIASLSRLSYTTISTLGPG
Assay: cell-based or functional assay

glucagon mRNA (qPCR) in human islets from donors with high HbA1c, 100 nM gastrin: 1.8 fold
insulin mRNA (qPCR) in human islets from donors with high HbA1c, 100 nM gastrin: > 2 fold
somatostatin mRNA (qPCR) in human islets from donors with high HbA1c, 100 nM gastrin: 2.5 fold
Substance: gastrin analogue [Leu^15] Gastrin-17 (GAST-17) (peptide)
